From the supplement of paper PMC10567573

B1: C22orf15 (parent)
chain: PRGRAHLLPNPYQQDFLGLPEELR
B2: FEM1B (parent)
chain: TLAALLLNRSESDIRYLLGYVSQQ

Variants of: B1
Experiment: protein stability index of a GFP-peptide fusion (GPS, HEK-293T) (PSI 1-6); higher = more stable
Settings: c terminus: a fixed tail appended
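Also: lentivirally expressed fusions sorted by FACS into six bins by GFP to DsRed ratio, PSI derived from sequencing read proportions per bin multiplied by bin number.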

| Variant | protein stability index |
| --- | --- |
| N10F | 3.35 |
| N10D | 4.16 |
| N10W | 2.88 |
| N10H | 4.06 |
| N10T | 4.05 |
| N10C | 3.58 |
| N10I | 3.97 |
| N10P | 4.07 |
| N10G | 4 |
| N10Y | 3.46 |
| N10K | 3.77 |
| N10S | 4.29 |
| N10A | 3.95 |
| N10M | 3.54 |
| N10E | 3.61 |
| N10R | 3.53 |
| N10Q | 4.12 |
| N10L | 3.69 |
| N10V | 4.14 |
| L17I | 2.85 |
| L17N | 4.28 |
| L17H | 4.41 |
| L17E | 4.94 |
| L17M | 3.44 |
| L17K | 4.42 |

| Variant | protein stability index |
| --- | --- |
| L17D | 4.87 |
| L17W | 3.37 |
| L17S | 4.2 |
| L17C | 4.04 |
| L17G | 3.84 |
| L17R | 4.03 |
| L17A | 4.43 |
| L17Y | 3.6 |
| L17P | 4.3 |
| L17V | 4.52 |
| L17Q | 4.4 |
| L17T | 4.17 |
| L17F | 3.47 |
| L19K | 4.28 |
| L19M | 3.53 |
| L19R | 3.9 |
| L19W | 3.75 |
| L19S | 4 |
| L19C | 4.26 |
| L19I | 3.57 |
| L19H | 4.21 |
| L19N | 4.1 |
| L19Q | 4.69 |
| L19D | 4.68 |
| L19E | 4.5 |

| Variant | protein stability index |
| --- | --- |
| L19V | 4 |
| L19Y | 3.82 |
| L19F | 3.31 |
| L19T | 4.26 |
| L19P | 4.22 |
| L19G | 4.05 |
| L19A | 4.13 |
| P9T | 3.61 |
| P9V | 3.71 |
| P9E | 3.89 |
| P9Y | 3.32 |
| P9N | 3.77 |
| P9C | 2.66 |
| P9A | 3.66 |
| P9D | 3.79 |
| P9F | 2.94 |
| P9K | 3.73 |
| P9W | 2.53 |
| P9H | 3.29 |
| P9R | 3.18 |
| P9L | 3.35 |
| P9Q | 3.84 |
| P9S | 3.88 |
| P9I | 2.88 |
| P9M | 3.8 |

| Variant | protein stability index |
| --- | --- |
| P9G | 2.77 |
| L23M | 4.33 |
| L23A | 4.24 |
| L23W | 3.45 |
| L23S | 4.17 |
| L23P | 3.6 |
| L23K | 4.63 |
| L23H | 4.68 |
| L23I | 4.09 |
| L23F | 3.66 |
| L23T | 3.94 |
| L23N | 4.01 |
| L23C | 4.08 |
| L23V | 3.68 |
| L23Q | 4.51 |
| L23Y | 3.88 |
| L23G | 4.41 |
| L23R | 4.04 |
| L23D | 4.49 |
| D15T | 3.44 |
| D15W | 2.98 |
| D15H | 3.17 |
| D15P | 3.76 |
| D15R | 3.74 |
| D15Y | 3.2 |

| Variant | protein stability index |
| --- | --- |
| D15V | 3.36 |
| D15A | 3.38 |
| D15K | 3.3 |
| D15G | 3.44 |
| D15F | 2.96 |
| D15S | 3.19 |
| D15C | 2.67 |
| D15L | 2.99 |
| D15I | 3.22 |
| D15N | 3.31 |
| D15M | 2.97 |
| D15Q | 3.69 |
| D15E | 3.74 |
| L8F | 3.49 |
| L8E | 3.96 |
| L8C | 4.14 |
| L8Q | 4.24 |
| L8M | 3.95 |
| L8Y | 3.25 |
| L8R | 3.56 |
| L8S | 3.93 |
| L8P | 4 |
| L8G | 3.59 |
| L8I | 3.94 |
| L8T | 3.23 |

| Variant | protein stability index |
| --- | --- |
| L8A | 3.58 |
| L8D | 4.6 |
| L8W | 2.56 |
| L8H | 3.86 |
| L8K | 3.98 |
| L8V | 4.02 |
| L8N | 4.09 |
| Q13V | 3.59 |
| Q13P | 4.21 |
| Q13N | 3.66 |
| Q13E | 4.05 |
| Q13I | 3.1 |
| Q13A | 3.7 |
| Q13M | 3.42 |
| Q13K | 3.65 |
| Q13C | 3.39 |
| Q13Y | 3.46 |
| Q13G | 4.1 |
| Q13H | 3.74 |
| Q13F | 3.1 |
| Q13D | 4.1 |
| Q13S | 3.56 |
| Q13R | 3.75 |
| Q13L | 3.43 |
| Q13T | 3.64 |

| Variant | protein stability index |
| --- | --- |
| Q13W | 2.7 |
| L7W | 3.24 |
| L7V | 4.12 |
| L7Y | 3.92 |
| Q14I | 3.19 |
| Q14T | 3.77 |
| Q14R | 3.19 |
| Q14D | 4.7 |
| Q14C | 3.46 |
| Q14L | 3.54 |
| Q14W | 2.93 |
| Q14A | 3.73 |
| Q14E | 4.47 |
| Q14M | 3.56 |
| Q14Y | 2.98 |
| Q14N | 3.91 |
| Q14S | 3.96 |
| Q14K | 4.01 |
| Q14P | 4.5 |
| Q14H | 3.92 |
| Q14V | 3.26 |
| Q14F | 3.66 |
| Q14G | 3.67 |
| P20Y | 2.42 |
| P20R | 3.23 |

| Variant | protein stability index |
| --- | --- |
| P20I | 2.75 |
| P20H | 3.37 |
| P20T | 3.42 |
| P20M | 2.78 |
| P20C | 2.85 |
| P20A | 3.46 |
| P20N | 3.62 |
| P20F | 2.43 |
| P20Q | 3.53 |
| P20S | 3.39 |
| P20D | 4.07 |
| P20G | 3.14 |
| P20E | 4.08 |
| P20L | 2.76 |
| P20V | 2.46 |
| P20K | 3.38 |
| P20W | 2.26 |
| Y12A | 4.51 |
| Y12L | 3.85 |
| Y12N | 4.61 |
| Y12K | 4.11 |
| Y12W | 2.87 |
| Y12M | 4.61 |
| Y12D | 4.53 |
| Y12H | 4.02 |

| Variant | protein stability index |
| --- | --- |
| Y12C | 3.84 |
| Y12V | 4.17 |
| Y12G | 4.87 |
| Y12T | 4.44 |
| Y12F | 3.5 |
| Y12S | 4.54 |
| Y12Q | 4.07 |
| Y12I | 4.36 |
| Y12P | 4.41 |
| Y12E | 4.54 |
| Y12R | 4.33 |
| R24V | 3.63 |
| R24Q | 3.89 |
| R24Y | 3.05 |
| R24C | 3.29 |
| R24M | 2.97 |
| R24T | 4.11 |
| R24L | 3.47 |
| R24D | 4.3 |
| R24N | 3.94 |
| R24A | 3.05 |
| R24S | 3.7 |
| R24E | 4.17 |
| R24F | 3.17 |
| R24W | 2.11 |

| Variant | protein stability index |
| --- | --- |
| R24H | 3.3 |
| R24G | 3.8 |
| R24I | 3.64 |
| R24P | 4.03 |
| R24K | 4.12 |
| G18T | 4.05 |
| G18P | 3.71 |
| G18R | 3.32 |
| G18W | 2.98 |
| G18H | 4.19 |
| G18L | 3.7 |
| G18A | 4.25 |
| G18C | 3.9 |
| G18N | 4.25 |
| G18D | 4.66 |
| G18I | 3.49 |
| G18K | 4.13 |
| G18Q | 4.27 |
| G18F | 3.24 |
| G18E | 4.36 |
| G18S | 3.94 |
| G18Y | 3.34 |
| G18M | 3.98 |
| G18V | 3.73 |
| E22M | 2.64 |

| Variant | protein stability index |
| --- | --- |
| E22P | 3.25 |
| E22H | 3.42 |
| E22V | 3.11 |
| E22T | 4.23 |
| E22N | 3.65 |
| E22G | 3.61 |
| E22A | 3.47 |
| E22W | 2.93 |
| E22R | 3.76 |
| E22S | 3.62 |
| E22Q | 3.57 |
| E22L | 2.3 |
| E22D | 4.06 |
| E22C | 3.22 |
| E22F | 3.27 |
| E22Y | 2.52 |
| E22K | 3.47 |
| E22I | 2.59 |
| E21R | 3.15 |
| E21N | 3.63 |
| E21T | 2.81 |
| E21S | 3.29 |
| E21W | 2.9 |
| E21C | 3.3 |
| E21Q | 3.06 |

| Variant | protein stability index |
| --- | --- |
| E21A | 3.54 |
| E21F | 3.42 |
| E21V | 3.1 |
| E21P | 3.6 |
| E21M | 3.14 |
| E21I | 2.89 |
| E21D | 3.51 |
| E21Y | 2.75 |
| E21K | 3.56 |
| E21H | 3.44 |
| E21L | 3.02 |
| E21G | 3.61 |
| P11W | 2.71 |
| P11C | 3.51 |
| P11Q | 4.35 |
| P11F | 3.44 |
| P11A | 3.41 |
| P11T | 4.1 |
| P11D | 4.12 |
| P11L | 3.42 |
| P11M | 3.72 |
| P11R | 3.33 |
| P11E | 4.74 |
| P11V | 3.5 |
| P11Y | 3.56 |

| Variant | protein stability index |
| --- | --- |
| P11S | 3.83 |
| P11I | 3.55 |
| P11N | 4.24 |
| P11K | 4.04 |
| P11H | 3.33 |
| P11G | 4.3 |
| F16R | 4.15 |
| F16M | 4.15 |
| F16V | 4.17 |
| F16S | 3.83 |
| F16D | 4.92 |
| F16W | 3.65 |
| F16G | 4.4 |
| F16A | 4.12 |
| F16Y | 4.17 |
| F16I | 4.01 |
| F16C | 4.11 |
| F16L | 4.23 |
| F16H | 4.44 |
| F16P | 4.12 |
| F16E | 4.63 |
| F16N | 4.36 |
| F16T | 4.17 |
| F16K | 4.22 |
| F16Q | 3.84 |

Variants of: B2
Experiment: as above
Settings: c terminus: a fixed tail appended

| Variant | protein stability index |
| --- | --- |
| T1M | 3.36 |
| T1I | 3.74 |
| T1D | 1.66 |
| T1L | 1.72 |
| T1A | 2.5 |
| T1G | 2.61 |
| T1E | 2.21 |
| T1K | 2.89 |
| T1C | 3.15 |
